Assay results taken from patent US20240016902A1.
Each block holds one substance with its values, some of them ahead of it.

Legend:
EIF4B [1] = biological target: EIF4B (UniProt P23588); test: Flag-IP from HeLa cell lysate, mass spectrometry of eluate
FLNA [2] = biological target: FLNA (UniProt P21333); test: as above
HSPA1A = HSPA1A (UniProt P0DMV8); test: as above
HSPA8 [3] = biological target: HSPA8 (UniProt P11142); test: as above
KRT1 = KRT1 (UniProt P04264); test: as above
PRMT5 [4] = biological target: PRMT5 (UniProt O14744); test: as above
[5] = biological target: SPTAN1 (accession Q13813-2) (UniProt Q13813); test: as above
SPTBN1 [6] = biological target: SPTBN1 (UniProt Q01082); test: as above
TUBA1B [7] = biological target: TUBA1B (UniProt P68363); test: as above
TUBA1C [8] = biological target: TUBA1C (UniProt Q9BQE3); test: as above
TUBB [9] = biological target: TUBB (UniProt P07437); test: as above
TUBB4B [10] = biological target: TUBB4B (UniProt P68371); test: as above
FLNA [11] = biological target: FLNA (UniProt P21333); test: Flag-IP from HepG2 cell lysate, mass spectrometry of eluate
HSPA8 [12] = biological target: HSPA8 (UniProt P11142); test: as above
POTEE = POTEE (UniProt Q6S8J3); test: as above
PRMT5 [13] = biological target: PRMT5 (UniProt O14744); test: as above
[14] = biological target: SPTAN1 (accession Q13813-3) (UniProt Q13813); test: as above
SPTBN1 [15] = biological target: SPTBN1 (UniProt Q01082); test: as above
TUBA1B [16] = biological target: TUBA1B (UniProt P68363); test: as above
TUBA1C [17] = biological target: TUBA1C (UniProt Q9BQE3); test: as above
TUBB [18] = biological target: TUBB (UniProt P07437); test: as above
TUBB4B [19] = biological target: TUBB4B (UniProt P68371); test: as above
WDR77 [20] = biological target: WDR77 (UniProt Q9BQA1); test: as above
[21] = biological target: SPTAN1 (accession Q13813) (Homo sapiens (Human)) (UniProt Q13813); test: Flag-IP from HeLa cell lysate, mass spectrometry of eluate
TUBA1A = TUBA1A (UniProt Q71U36); test: as above
WDR77 [22] = biological target: WDR77 (UniProt Q9BQA1); test: as above
DBN1 = DBN1 (UniProt Q16643); test: Flag-IP from HepG2 cell lysate, mass spectrometry of eluate
EIF4B [23] = biological target: EIF4B (UniProt P23588); test: as above
[24] = biological target: SPTAN1 (accession Q13813-2) (UniProt Q13813); test: as above
VIL1 = VIL1 (UniProt P09327); test: as above

Chain of FLNA (P21333 2-2647 limits assumed): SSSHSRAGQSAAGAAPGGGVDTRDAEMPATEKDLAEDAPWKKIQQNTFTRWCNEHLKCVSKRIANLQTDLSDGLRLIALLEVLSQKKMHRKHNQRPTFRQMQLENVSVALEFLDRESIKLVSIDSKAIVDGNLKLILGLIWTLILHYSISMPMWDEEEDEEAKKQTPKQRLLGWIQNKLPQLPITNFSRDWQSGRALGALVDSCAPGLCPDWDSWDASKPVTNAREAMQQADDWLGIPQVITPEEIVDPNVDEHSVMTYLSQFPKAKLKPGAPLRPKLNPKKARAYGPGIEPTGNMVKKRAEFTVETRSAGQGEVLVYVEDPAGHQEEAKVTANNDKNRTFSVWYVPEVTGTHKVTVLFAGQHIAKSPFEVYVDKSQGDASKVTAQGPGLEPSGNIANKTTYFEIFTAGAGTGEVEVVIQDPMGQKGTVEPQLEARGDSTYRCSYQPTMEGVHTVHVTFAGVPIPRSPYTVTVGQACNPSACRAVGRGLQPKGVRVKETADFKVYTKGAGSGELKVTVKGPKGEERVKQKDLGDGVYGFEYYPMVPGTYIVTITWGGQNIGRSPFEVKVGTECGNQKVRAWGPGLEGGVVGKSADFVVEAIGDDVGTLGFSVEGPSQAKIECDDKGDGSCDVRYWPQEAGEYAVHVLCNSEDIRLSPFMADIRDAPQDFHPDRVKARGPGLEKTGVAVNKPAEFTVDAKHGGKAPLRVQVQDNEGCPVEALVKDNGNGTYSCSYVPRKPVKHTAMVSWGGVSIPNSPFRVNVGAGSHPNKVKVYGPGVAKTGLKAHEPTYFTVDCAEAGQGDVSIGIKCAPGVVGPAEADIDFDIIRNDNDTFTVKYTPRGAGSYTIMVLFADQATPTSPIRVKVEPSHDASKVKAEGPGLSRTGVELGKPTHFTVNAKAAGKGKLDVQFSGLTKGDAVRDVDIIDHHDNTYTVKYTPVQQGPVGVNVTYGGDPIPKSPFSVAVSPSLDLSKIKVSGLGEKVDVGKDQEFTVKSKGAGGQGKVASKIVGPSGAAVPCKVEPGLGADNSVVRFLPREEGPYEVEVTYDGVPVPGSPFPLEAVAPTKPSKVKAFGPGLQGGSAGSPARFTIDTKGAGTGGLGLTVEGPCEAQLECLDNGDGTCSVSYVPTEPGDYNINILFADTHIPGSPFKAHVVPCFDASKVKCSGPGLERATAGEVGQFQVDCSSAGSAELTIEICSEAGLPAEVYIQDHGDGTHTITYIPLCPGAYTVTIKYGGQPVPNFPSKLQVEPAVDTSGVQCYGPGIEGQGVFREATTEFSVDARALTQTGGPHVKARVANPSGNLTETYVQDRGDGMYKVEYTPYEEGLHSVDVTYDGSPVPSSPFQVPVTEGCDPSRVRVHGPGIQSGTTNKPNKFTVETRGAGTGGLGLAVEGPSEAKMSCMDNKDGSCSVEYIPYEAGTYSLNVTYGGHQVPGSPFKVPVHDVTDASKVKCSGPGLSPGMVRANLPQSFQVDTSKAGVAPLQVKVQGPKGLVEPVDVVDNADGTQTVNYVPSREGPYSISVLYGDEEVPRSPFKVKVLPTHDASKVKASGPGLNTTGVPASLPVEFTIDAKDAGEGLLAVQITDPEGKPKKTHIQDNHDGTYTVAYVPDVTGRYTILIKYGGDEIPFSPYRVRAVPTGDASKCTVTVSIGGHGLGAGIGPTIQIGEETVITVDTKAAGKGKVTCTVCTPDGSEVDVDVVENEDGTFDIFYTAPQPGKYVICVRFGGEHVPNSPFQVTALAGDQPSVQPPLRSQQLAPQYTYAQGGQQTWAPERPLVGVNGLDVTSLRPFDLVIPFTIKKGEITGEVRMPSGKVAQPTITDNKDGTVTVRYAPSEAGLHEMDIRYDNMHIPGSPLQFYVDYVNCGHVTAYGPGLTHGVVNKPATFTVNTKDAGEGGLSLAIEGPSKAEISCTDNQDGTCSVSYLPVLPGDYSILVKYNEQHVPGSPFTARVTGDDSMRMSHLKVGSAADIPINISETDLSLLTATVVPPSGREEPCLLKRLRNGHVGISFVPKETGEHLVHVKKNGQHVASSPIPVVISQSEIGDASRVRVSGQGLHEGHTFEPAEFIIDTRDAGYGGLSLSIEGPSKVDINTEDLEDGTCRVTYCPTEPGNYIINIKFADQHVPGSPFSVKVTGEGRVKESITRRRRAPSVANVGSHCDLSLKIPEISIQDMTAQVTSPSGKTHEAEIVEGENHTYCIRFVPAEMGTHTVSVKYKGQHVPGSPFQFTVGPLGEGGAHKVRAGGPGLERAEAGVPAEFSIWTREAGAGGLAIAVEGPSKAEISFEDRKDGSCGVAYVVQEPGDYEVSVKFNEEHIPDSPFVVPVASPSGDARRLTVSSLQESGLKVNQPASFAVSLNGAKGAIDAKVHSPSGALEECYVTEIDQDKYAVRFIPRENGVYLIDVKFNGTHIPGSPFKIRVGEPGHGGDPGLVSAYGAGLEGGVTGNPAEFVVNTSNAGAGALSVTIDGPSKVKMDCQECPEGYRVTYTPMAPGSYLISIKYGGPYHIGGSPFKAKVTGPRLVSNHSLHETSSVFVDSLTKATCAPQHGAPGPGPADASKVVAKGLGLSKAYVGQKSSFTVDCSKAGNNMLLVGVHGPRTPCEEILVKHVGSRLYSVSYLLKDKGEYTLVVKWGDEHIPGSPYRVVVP
Chain of TUBB (P07437 whole entry): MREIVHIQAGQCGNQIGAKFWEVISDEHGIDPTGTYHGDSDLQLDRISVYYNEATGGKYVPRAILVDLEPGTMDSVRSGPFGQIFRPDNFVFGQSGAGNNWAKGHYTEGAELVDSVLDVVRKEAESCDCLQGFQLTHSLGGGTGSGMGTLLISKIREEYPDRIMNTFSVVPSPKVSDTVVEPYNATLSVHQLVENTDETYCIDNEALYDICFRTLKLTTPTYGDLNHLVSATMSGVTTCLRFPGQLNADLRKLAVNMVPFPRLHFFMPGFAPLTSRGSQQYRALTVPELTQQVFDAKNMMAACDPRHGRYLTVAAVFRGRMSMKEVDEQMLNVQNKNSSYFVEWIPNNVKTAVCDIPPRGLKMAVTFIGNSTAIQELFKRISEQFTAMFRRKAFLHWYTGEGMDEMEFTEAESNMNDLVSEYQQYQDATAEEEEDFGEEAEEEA
Chain of Flag-AtRDR1 (Arabidopsis thaliana RNA-dependent RNA polymerase 1 with Flag tag) (Q9LQV2 whole entry): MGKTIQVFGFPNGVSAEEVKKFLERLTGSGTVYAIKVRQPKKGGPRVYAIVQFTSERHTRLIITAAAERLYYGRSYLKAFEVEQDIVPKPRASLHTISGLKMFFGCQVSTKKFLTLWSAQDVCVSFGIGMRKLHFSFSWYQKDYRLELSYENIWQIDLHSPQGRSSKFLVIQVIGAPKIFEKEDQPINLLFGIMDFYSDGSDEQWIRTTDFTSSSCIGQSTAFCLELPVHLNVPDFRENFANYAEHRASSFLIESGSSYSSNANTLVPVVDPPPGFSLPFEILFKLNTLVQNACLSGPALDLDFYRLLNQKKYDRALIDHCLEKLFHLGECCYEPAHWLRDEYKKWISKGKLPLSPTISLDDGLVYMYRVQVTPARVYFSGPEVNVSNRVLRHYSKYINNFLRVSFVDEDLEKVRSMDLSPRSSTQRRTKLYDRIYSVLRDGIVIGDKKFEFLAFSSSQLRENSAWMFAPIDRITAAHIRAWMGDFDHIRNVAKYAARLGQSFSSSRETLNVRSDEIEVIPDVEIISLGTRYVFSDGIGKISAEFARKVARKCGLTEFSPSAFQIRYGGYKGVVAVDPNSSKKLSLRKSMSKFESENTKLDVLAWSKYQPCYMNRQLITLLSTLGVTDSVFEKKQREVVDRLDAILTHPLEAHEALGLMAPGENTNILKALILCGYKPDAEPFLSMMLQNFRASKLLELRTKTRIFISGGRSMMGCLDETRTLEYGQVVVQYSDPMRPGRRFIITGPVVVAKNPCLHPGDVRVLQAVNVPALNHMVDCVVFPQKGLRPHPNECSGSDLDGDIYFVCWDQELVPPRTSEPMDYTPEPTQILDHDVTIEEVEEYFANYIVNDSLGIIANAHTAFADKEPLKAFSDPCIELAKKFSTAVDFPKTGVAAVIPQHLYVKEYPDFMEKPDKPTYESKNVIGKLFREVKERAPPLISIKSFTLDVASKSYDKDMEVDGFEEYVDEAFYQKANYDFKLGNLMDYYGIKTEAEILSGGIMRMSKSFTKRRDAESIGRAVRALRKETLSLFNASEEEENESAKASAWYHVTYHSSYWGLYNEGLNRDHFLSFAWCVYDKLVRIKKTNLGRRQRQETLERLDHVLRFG
Chain of HSPA1A (P0DMV8 2-641 limits assumed): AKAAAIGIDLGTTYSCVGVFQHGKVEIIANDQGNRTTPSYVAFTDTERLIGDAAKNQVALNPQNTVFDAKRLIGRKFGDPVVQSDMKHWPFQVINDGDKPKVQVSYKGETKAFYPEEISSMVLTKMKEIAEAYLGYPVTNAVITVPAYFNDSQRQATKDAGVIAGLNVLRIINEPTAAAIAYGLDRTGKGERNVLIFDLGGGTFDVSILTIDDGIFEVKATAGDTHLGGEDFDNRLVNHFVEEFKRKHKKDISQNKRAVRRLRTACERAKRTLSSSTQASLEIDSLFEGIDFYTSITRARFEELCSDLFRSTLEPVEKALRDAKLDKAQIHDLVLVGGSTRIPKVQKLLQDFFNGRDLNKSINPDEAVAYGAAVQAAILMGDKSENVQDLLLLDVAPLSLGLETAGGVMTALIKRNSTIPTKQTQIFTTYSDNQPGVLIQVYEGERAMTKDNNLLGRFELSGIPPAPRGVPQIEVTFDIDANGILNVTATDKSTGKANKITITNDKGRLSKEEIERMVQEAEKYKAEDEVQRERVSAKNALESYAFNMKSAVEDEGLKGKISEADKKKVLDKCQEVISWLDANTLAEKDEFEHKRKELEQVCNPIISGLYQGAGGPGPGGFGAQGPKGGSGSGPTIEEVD

Coverage (%) (EIF4B [1]): 26% | Length of peptide (EIF4B [1]): 9 | Coverage (%) (FLNA [2]): 12% | Length of peptide (FLNA [2]): 20 | Coverage (%) (HSPA1A): 26% | Length of peptide (HSPA1A): 13 | Coverage (%) (HSPA8 [3]): 36% | Length of peptide (HSPA8 [3]): 17 | Coverage (%) (KRT1): 32% | Length of peptide (KRT1): 14 | Coverage (%) (PRMT5 [4]): 37% | Length of peptide (PRMT5 [4]): 15 | Coverage (%) [5]: 9% | Length of peptide [5]: 16 | Coverage (%) (SPTBN1 [6]): 10% | Length of peptide (SPTBN1 [6]): 16 | Coverage (%) (TUBA1B [7]): 40% | Length of peptide (TUBA1B [7]): 12 | Coverage (%) (TUBA1C [8]): 35% | Length of peptide (TUBA1C [8]): 11 | Coverage (%) (TUBB [9]): 42% | Length of peptide (TUBB [9]): 15 | Coverage (%) (TUBB4B [10]): 38% | Length of peptide (TUBB4B [10]): 14 | Coverage (%) (FLNA [11]): 32% | Length of peptide (FLNA [11]): 50 | Coverage (%) (HSPA8 [12]): 68% | Length of peptide (HSPA8 [12]): 34 | Coverage (%) (POTEE): 11% | Length of peptide (POTEE): 9 | Coverage (%) (PRMT5 [13]): 61% | Length of peptide (PRMT5 [13]): 31 | Coverage (%) [14]: 47% | Length of peptide [14]: 85 | Coverage (%) (SPTBN1 [15]): 48% | Length of peptide (SPTBN1 [15]): 81 | Coverage (%) (TUBA1B [16]): 62% | Length of peptide (TUBA1B [16]): 19 | Coverage (%) (TUBA1C [17]): 55% | Length of peptide (TUBA1C [17]): 17 | Coverage (%) (TUBB [18]): 66% | Length of peptide (TUBB [18]): 24 | Coverage (%) (TUBB4B [19]): 66% | Coverage (%) (WDR77 [20]): 64% | Length of peptide (WDR77 [20]): 15
Substance: Flag-OsRDR1 (rice, Oryza sativa, RNA-dependent RNA polymerase 1 with Flag tag) (from UniProt Q0DXS3 1-740) (enzyme)

Coverage (%) (EIF4B [1]): 33% | Length of peptide (EIF4B [1]): 20 | Coverage (%) (FLNA [2]): 20% | Length of peptide (FLNA [2]): 36 | Coverage (%) (HSPA1A): 17% | Length of peptide (HSPA1A): 10 | Coverage (%) (PRMT5 [4]): 29% | Length of peptide (PRMT5 [4]): 12 | Coverage (%) [21]: 16% | Length of peptide [21]: 29 | Coverage (%) (SPTBN1 [6]): 12% | Coverage (%) (TUBA1A): 36% | Coverage (%) (TUBA1C [8]): 31% | Length of peptide (TUBA1C [8]): 10 | Coverage (%) (TUBB [9]): 29% | Length of peptide (TUBB [9]): 10 | Coverage (%) (TUBB4B [10]): 25% | Length of peptide (TUBB4B [10]): 9 | Coverage (%) (WDR77 [22]): 44% | Length of peptide (WDR77 [22]): 10 | Coverage (%) (DBN1): 36% | Coverage (%) (EIF4B [23]): 37% | Length of peptide (EIF4B [23]): 17 | Coverage (%) (FLNA [11]): 27% | Length of peptide (FLNA [11]): 38 | Coverage (%) (HSPA8 [12]): 56% | Length of peptide (HSPA8 [12]): 27 | Coverage (%) (POTEE): 9% | Length of peptide (POTEE): 7 | Coverage (%) (PRMT5 [13]): 59% | Length of peptide (PRMT5 [13]): 31 | Coverage (%) [24]: 44% | Length of peptide [24]: 83 | Coverage (%) (SPTBN1 [15]): 45% | Length of peptide (SPTBN1 [15]): 72 | Coverage (%) (VIL1): 46% | Length of peptide (VIL1): 26 | Coverage (%) (WDR77 [20]): 66%
Substance: Flag-AtRDR1 (Arabidopsis thaliana RNA-dependent RNA polymerase 1 with Flag tag) (from UniProt Q9LQV2 1-1107) (enzyme)
